Test results from patent publication EP2243792A1 (Spiber Technologies AB, dated 2010).

Columns and labels:
[1] = target: NT, N-terminal domain of major ampullate spidroin (MaSp) 1 from Euprosthenops australis (Euprosthenops australis); experiment: self-association; DLS, 10 mM phosphate buffer + 150 mM NaCl, pH 6.1
[2] = target: NT, N-terminal domain of major ampullate spidroin (MaSp) 1 from Euprosthenops australis (Euprosthenops australis); experiment: self-association; DLS, 10 mM phosphate buffer + 300 mM NaCl, pH 6.2
[3] = target: NT, N-terminal domain of major ampullate spidroin (MaSp) 1 from Euprosthenops australis (Euprosthenops australis); experiment: self-association; DLS, 10 mM phosphate buffer, pH 6.0
[4] = target: NT, N-terminal domain of major ampullate spidroin (MaSp) 1 from Euprosthenops australis (Euprosthenops australis); experiment: self-association; DLS, 100 mM phosphate buffer, pH 6.2
[5] = target: NT, N-terminal domain of major ampullate spidroin (MaSp) 1 from Euprosthenops australis (Euprosthenops australis); experiment: self-association; DLS, 10 mM phosphate buffer, pH 7.2
[6] = target: NT, N-terminal domain of major ampullate spidroin (MaSp) 1 from Euprosthenops australis (Euprosthenops australis); experiment: self-association; DLS, 100 mM phosphate buffer, pH 7.2
[7] = target: NT, N-terminal domain of major ampullate spidroin (MaSp) 1 from Euprosthenops australis (Euprosthenops australis); experiment: self-association; DLS, 10 mM phosphate buffer + 150 mM NaCl, pH 7.2
[8] = target: NT, N-terminal domain of major ampullate spidroin (MaSp) 1 from Euprosthenops australis (Euprosthenops australis); experiment: self-association; DLS, 10 mM phosphate buffer + 300 mM NaCl, pH 7.2
[9] = target: the molecule itself; experiment: self-association; polymerisation at pH 6, macroscopic formations and SEM
[10] = target: the molecule itself; experiment: self-association; turbidimetry at different pH values

B1: NT, N-terminal domain of major ampullate spidroin (MaSp) 1 from Euprosthenops australis (protein)
chain: GSGNSHTTPWTNPGLAENFMNSFMQGLSSMPGFTASQLDDMSTIAQSMVQSIQSLAAQGRTSPNKLQALNMAFASSMAEIAASEEGGGSLSTKTSSIASAMSNAFLQTTGVVNQPFINEITQLVSMFAQAGMNDVSA
- % particles [1]: 96.8%
- Size (nm) [1]: 710 nm
- % particles [2]: 99.9%
- Size (nm) [2]: 4.4 nm
- % particles [3]: 100%
- Size (nm) [3]: 687 nm
- % particles [4]: 99.9%
- Size (nm) [4]: 4.2 nm
- % particles [5]: 99.8%
- Size (nm) [5]: 4.5 nm
- % particles [6]: 99.9%
- Size (nm) [6]: 4.2 nm
- % particles [7]: 99.9%
- Size (nm) [7]: 4.1 nm
- % particles [8]: 99.9%
- Size (nm) [8]: 4.3 nm

B2: NT4Rep (other)
chain: GSGNSHTTPWTNPGLAENFMNSFMQGLSSMPGFTASQLDDMSTIAQSMVQSIQSLAAQGRTSPNKLQALNMAFASSMAEIAASEEGGGSLSTKTSSIASAMSNAFLQTTGVVNQPFINEITQLVSMFAQAGMNDVSASASAGASAAASAGAASGQGGYGGLGQGGYGQGAGSSAAAAAAAAAAAAGGQGGQGQGGYGQGSGGSAAAAAAAAAAAAAAAGRGQGGYGQGSGGNAAAAAAAAAAAAAAAGQGGQGGYGRQSQGAGSAAAAAAAAAAAAAAGSGQGGYGGQGQGGYGQS
notes: Non-natural minispidroin: NT domain plus a repetitive fragment derived from E. australis MaSp1; Made as a C-terminal fusion to His6TrxHis6, tag removed; also called minispidroin NT4Rep
- binding result [9]: binds

B3: NT4RepCT (other)
chain: MKASHTTPWTNPGLAENFMNSFMQGLSSMPGFTASQLDDMSTIAQSMVQSIQSLAAQGRTSPNKLQALNMAFASSMAEIAASEEGGGSLSTKTSSIASAMSNAFLQTTGVVNQPFINEITQLVSMFAQAGMNDVSASASAGASAAASAGAASGQGGYGGLGQGGYGQGAGSSAAAAAAAAAAAAGGQGGQGQGGYGQGSGGSAAAAAAAAAAAAAAAGRGQGGYGQGSGGNAAAAAAAAAAAAAAAGQGGQGGYGRQSQGAGSAAAAAAAAAAAAAAGSGQGGYGGQGQGGYGQSSASASAAASAASTVANSVSRLSSPSAVSRVSSAVSSLVSNGQVNMAALPNIISNISSSVSASAPGASGCEVIVQALLEVITALVQIVSSSSVGYINPSAVNQITNVVANAMAQVMGKLAAALEHHHHHH
notes: Non-natural minispidroin: NT, repetitive fragment and C-terminal domain; Made as an N-terminal fusion to His6; also called NT4RepCTHis; minispidroin NT4RepCT
- binding result [9]: binds

B4: NT5Rep (other)
chain: GSGNSHTTPWTNPGLAENFMNSFMQGLSSMPGFTASQLDDMSTIAQSMVQSIQSLAAQGRTSPNKLQALNMAFASSMAEIAASEEGGGSLSTKTSSIASAMSNAFLQTTGVVNQPFINEITQLVSMFAQAGMNDVSASASAGASAAASAGAPGYSPAPSYSSGGYASSAASAAAAAGQGGPGGYGPAPNQGASSAAAAAAGSGQGPSGPYGTSYQISTQYTQTTTSQGQGYGSSSAGAAAAGAAGAGQGGYGGQGQGGYGQGAGGAAAAAAAAAAAAAAAGQGGQGGGGYGQGGQGGQGGQGQGGYGQGAGSSAAAAAAAAAAAAAAGRGQGGYGPGSGG
notes: Non-natural minispidroin; Made as a C-terminal fusion to His6TrxHis6, tag removed
- binding result [10]: binds
